For 33 molecules, Kd and Ki results are on record in patent publication US6124449, “High affinity TGFβ nucleic acid ligands and inhibitors” (NeXstar Pharmaceuticals, Inc.).

In data set [1] the target is T1, TGF-beta1 (hTGF-beta1) (Homo sapiens, UniProt P01137 P01137:279-390). The data set is described as follows: filter; monophasic, plateau about 10%; Table 3 and Table 4 sequences differ slightly. As to conditions: tags: R&D Systems; biotinylated form (NFTG0) used for BIAcore; chain copies: 2.
Data set [2] concerns the target T1, TGF-beta1 (hTGF-beta1). The data set can be described thus: filter; monophasic, plateau 8%. As to conditions: tags: R&D Systems; biotinylated form (NFTG0) used for BIAcore; chain copies: 2.
The target of data set [3] is T1, TGF-beta1 (hTGF-beta1). The data set is described as follows: filter; monophasic. The following applies: tags: R&D Systems; biotinylated form (NFTG0) used for BIAcore; chain copies: 2. (In SPR one partner is held on a chip, and binding of the other changes the refractive index at the surface.)
For data set [4], the target named is T1, TGF-beta1 (hTGF-beta1). The data set is described as follows: filter; biphasic; Kd1 58.2 nM; P2 1.2%. The following applies: tags: R&D Systems; biotinylated form (NFTG0) used for BIAcore; chain copies: 2.
Data set [5] concerns the target T1, TGF-beta1 (hTGF-beta1). The data set is described as follows: filter; biphasic; Kd1 56.6 nM; P2 2.4%. As to conditions: tags: R&D Systems; biotinylated form (NFTG0) used for BIAcore; chain copies: 2.
Data set [6] has as its target T1, TGF-beta1 (hTGF-beta1). The data set is described as follows: cell_activity; MLEC assay. The following applies: tags: R&D Systems, biotinylated form (NFTG0) used for BIAcore, chain copies: 2. As to the method:
Cells were plated at 10^5/mL in 96-well plates in MEM, 10 mM HEPES and 0.2% FBS. Following 4 hours of incubation at 37° C., when cells appeared to attach to the well surface, TGFβ1 was added at 2 pM with or without TGFβ1 ligands that ranged from 0.1 nM to 1 µM. In a second assay performed in order to determine cross-species reactivity, rather than using hTGFβ, a conditioned serum-free medium (CM) was used. CM was conditioned by culturing it in murine 3T3 fibroblast for 48 hours. Before use, this conditioned medium was heat treated at 80° C. for 10 minutes to activate the 3T3 cell derived TGFβ and then it was diluted to 50% and supplemented with 0.2% murine serum. In each assay, hTGFβ1 (or CM) was diluted appropriately in MEM and FBS (0.2% or murine serum) and the ligands were diluted in MEM. TGFβ1 (or CM) and ligand dilutions at 10× the final concentration were premixed at equal volumes and then were added to the cells. Following addition of the TGFβ1 (or CM)-ligand mixture, the cells were incubated for 16–18 hours prior to addition of ^3H-thymidine at 0.25 µCi per well and continued incubation for 7–8 additional hours. After incubation, the cells were washed and harvested with SKATRON filtering units and ^3H-thymidine incorporation in cellular DNA was quantitated by scintillation counting in Ecoscint. Data were plotted and analyzed as described in Park et al. (1990) J. Exp. Med. 171:1073) and Dower et al. (1984) J. Immunol.

Data set [7] concerns the target T1, TGF-beta1 (hTGF-beta1). The data set can be described thus: filter; biphasic; Kd1 3.7±1.5 nM. As to conditions: tags: R&D Systems; biotinylated form (NFTG0) used for BIAcore; chain copies: 2.
Data set [8] addresses T1, TGF-beta1 (hTGF-beta1). The data set is described as follows: filter; biphasic; Kd1 4.2±2.2 nM. As to conditions: tags: R&D Systems; biotinylated form (NFTG0) used for BIAcore; chain copies: 2.
Data set [9] concerns the target T1, TGF-beta1 (hTGF-beta1). The data set is described as follows: filter; biphasic; Kd1 14.0±6.4 nM. As to conditions: tags: R&D Systems; biotinylated form (NFTG0) used for BIAcore; chain copies: 2.
For data set [10], the target named is T1, TGF-beta1 (hTGF-beta1). The data set is described as follows: filter; biphasic; Kd1 8.5±1.8 nM. As to conditions: tags: R&D Systems; biotinylated form (NFTG0) used for BIAcore; chain copies: 2.
Data set [11] deals with T1, TGF-beta1 (hTGF-beta1). The data set is described as follows: filter; biphasic; Kd1 5.6±2.0 nM. The following applies: tags: R&D Systems; biotinylated form (NFTG0) used for BIAcore; chain copies: 2.
The target of data set [12] is T1, TGF-beta1 (hTGF-beta1). The data set is described as follows: filter; biphasic; Kd1 13.5±4.2 nM. As to conditions: tags: R&D Systems; biotinylated form (NFTG0) used for BIAcore; chain copies: 2.
In data set [13] the target is T1, TGF-beta1 (hTGF-beta1). The data set can be described thus: filter; biphasic; Kd1 4.4±1.6 nM. The following applies: tags: R&D Systems; biotinylated form (NFTG0) used for BIAcore; chain copies: 2.
The target of data set [14] is T1, TGF-beta1 (hTGF-beta1). The data set is described as follows: filter; biphasic; Kd1 3.7±0.6 nM. As to conditions: tags: R&D Systems; biotinylated form (NFTG0) used for BIAcore; chain copies: 2.

Residue numbers refer to the chain shown, from its start.

T1 sequence (P01137 279-390, one chain of several): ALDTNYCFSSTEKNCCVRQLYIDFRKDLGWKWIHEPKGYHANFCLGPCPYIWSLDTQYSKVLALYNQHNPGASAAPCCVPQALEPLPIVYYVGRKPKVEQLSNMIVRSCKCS

B1: 20-05 (ssRNA)
RNA: GGGAGGACGAUGCGGUGUCUCUACCUUAGGUUGAUUCCUUCUACCGCAGACGACUCGCCCGA
modifications: 2'-F C and U
As to B1, the dissociation constant (Kd) (as a rule, the concentration at which binding is half-saturated) in data set [1] came out at 0.11 nM.

B2: 20-04 (ssRNA)
RNA: GGGAGGACGAUGCGGUGUCUUUAGCUUAGGUGAUUCCUUCUGCCGCAGACGACUCGCCCGA
modifications: 2'-F C and U
In data set [2], B2 had an equilibrium dissociation constant (Kd) of 0.2 nM.

B3: 30-37 (ssRNA)
RNA: B2 RNA with A23G, U26C
modifications: 2'-F C and U
As to B3, the Kd in [3] turned out to be 2.65 nM.

B4: 30-43 (ssRNA)
RNA: B2 RNA with U26C
modifications: 2'-F C and U
Regarding B4, in data set [3], the Kd stood at 50.5 nM.

B5: 30-03 (ssRNA)
RNA: B2 RNA with U26C, U27C
modifications: 2'-F C and U
The molecule B5 gave a Kd in data set [4] of 0.262 nM.

B6: 30-06 (ssRNA)
RNA: B2 RNA with U18C, U31C, G32U, A33U, U35G
modifications: 2'-F C and U
With B6, in [5], binding was put at a Kd of 0.0741 nM.

B7: 40-13 (ssRNA)
RNA: GGGAGGACGAUGCGGAGCAAGGUUACGAGGUCGGACCCUGCUGCCAACAUCCUCCCCAGACGACUCGCCCGA
modifications: 2'-F C and U
For B7, in data set [3], binding was put at a Kd of 15.4 nM.

B8: 40-40 (ssRNA)
RNA: B7 RNA with A16C, G17C, A28C, G29C, G40A, A49U
modifications: 2'-F C and U
Regarding B8, the Kd in [3] came to 18 nM.

B9: 40-33 (ssRNA)
RNA: B7 RNA with A28C, G29C
modifications: 2'-F C and U
In turn, B9 gave a Kd in [3] of 26.6 nM.

B10: 40-44 (ssRNA)
RNA: B7 RNA with A16U, A28C, G29C
modifications: 2'-F C and U
In the case of B10, in data set [3], the Kd was 11.1 nM.

B11: 40-20 (ssRNA)
RNA: B7 RNA with A16U, G17A, A28C, G29C
modifications: 2'-F C and U
The molecule B11 registered a Kd in data set [3] of 11.2 nM.

B12: 40-29 (ssRNA)
RNA: GGGAGGACGAUGCGGGACCCUUUUCUGCGAUUCAACUCGUACGUCUUCUCACGUGCAGACGACUCGCCCGA
modifications: 2'-F C and U
Turning to B12, in data set [3], binding was characterised by a dissociation constant (Kd) of 10.9 nM.

B13: 40-12 (ssRNA)
RNA: B12 RNA with U23G, C42G, C45U
modifications: 2'-F C and U
As to B13, the affinity in data set [6] corresponds to a Ki of 6.88 nM.

B14: 40-56 (ssRNA)
RNA: GGGAGGACGAUGCGGUUAGGGCGUCAACACCGCUAUUACAACUUUCGCCUCCCCAGACGACUCGCCCGA
modifications: 2'-F C and U
For the molecule B14, the inhibition constant (Ki) – broadly, the equilibrium dissociation constant of an inhibitor or competing ligand from its target – in data set [6] worked out at 7.4 nM.

B15: 40-77 (ssRNA)
RNA: GGGAGGACGAUGCGGUUAUGGGCGUCAACACCGCUAUUACAACUUUCGCCCCCCAGACGACUCGCCCGA
modifications: 2'-F C and U
In the case of B15, in data set [7], binding was characterised by a dissociation constant (Kd) of 0.00173 nM.

B16: 30-15 (ssRNA)
RNA: GGGAGGACGAUGCGGUUGACCGUUAAGACGGCAUGAUGUGGUCCGCAGACGACUCGCCCGA
modifications: 2'-F C and U
For the molecule B16, in data set [3], the Kd came out at 55.3 nM.

B17: 30-22 (ssRNA)
RNA: B16 RNA with G18A, U24A, G40U, G41U
modifications: 2'-F C and U
Consider B17, for which the Kd in data set [3] amounted to 2.47 nM.

B18: 40-08 (ssRNA)
RNA: GGGAGGACGAUGCGGCGCAAGGUUACGCCGUCGGACCCUGCUGCCAACAUCCUCCCAGACGACUCGCCCGA
modifications: 2'-F C and U
Take B18: the Kd in data set [3] stood at 15.4 nM.

B19: 40-36 (ssRNA)
RNA: GGGAGGACGAUGCGGGUCAAGGUUACGCCGUCGGACCCUACUGCCCCCAGACGACUCGCCCGA
modifications: 2'-F C and U
In the case of B19, the Kd in data set [3] came out at 41.7 nM.

B20: 40-19 (ssRNA)
RNA: GGGAGGACGAUGCGGUUAGCGCGAGUUCAACACCGCAUGUGAUUCUUUCGCCUCCCAGACGACUCGCCCGA
modifications: 2'-F C and U
In turn, B20 displayed a Kd in [8] of 0.0037 nM. In data set [6], this molecule registered an inhibition constant Ki of 28 nM.

B21: 40-38 (ssRNA)
RNA: GGGAGGACGAUGCGGAGAUAAUUAUCAGCGGUGGACGGGGUGCCGGUACUGCCGCCAGACGACUCGCCCGA
modifications: 2'-F C and U
Consider B21, for which, in data set [3], the Kd was found to be 21.8 nM.

B22: 40-32 (ssRNA)
RNA: GGGAGGACGAUGCGGUUAUGGGCGUCAACACCGCUAUUACAACUUUCGCCUCCAGACGACUCGCCCGA
modifications: 2'-F C and U
On to B22, for which binding in [9] was characterised by a dissociation constant (Kd) of 0.005 nM.

B23: 40-54 (ssRNA)
RNA: GGGAGGACGAUGCGGUUAGGGGCGUCAACACCGCUAUCAUAACUUUCGCUUCCCCAGACGACUCGCCCGA
modifications: 2'-F C and U
In [10], B23 registered a Kd of 0.00675 nM.

B24: 40-64 (ssRNA)
RNA: B23 RNA with C38U, U40C, C43U, U44C, C49U, U50C, C52U
modifications: 2'-F C and U
Molecule B24 had a dissociation constant (Kd) in data set [11] of 0.0031 nM.

B25: 40-61,76 (ssRNA)
RNA: B23 RNA with C38U, U40C, C43U, U44C, C52U
modifications: 2'-F C and U
Take B25: in data set [12], the affinity, expressed as Kd, was 0.001 nM.

B26: 40-16 (ssRNA)
RNA: B23 RNA with C38U, U40C, A42U, U50C
modifications: 2'-F C and U
Take B26: the inhibition constant Ki in data set [6] was 0.6 nM.

B27: 40-58 (ssRNA)
RNA: B23 RNA with G19U, C38U, U40C, U50C
modifications: 2'-F C and U
Molecule B27 gave an inhibition constant (Ki) in data set [6] of 0.9 nM. In data set [13], the Kd came to 0.0053 nM.

B28: 40-06 (ssRNA)
RNA: GGGAGGACGAUGCGGUUAGGGGCGUCAACACCGCUAUCAUAAUUUUCGCCUUCCCCAGACGACUCGCCCGA
modifications: 2'-F C and U
Regarding B28, binding in [14] was characterised by a dissociation constant (Kd) of 0.0016 nM.

B29: 40-60 (ssRNA)
RNA: B28 RNA with G19U, C38U, U40C, A42G, U52C
modifications: 2'-F C and U
Turning to B29, the inhibition constant Ki in data set [6] (label: 5'-biotin for BIAcore specificity, proposed double pseudoknot) was determined as 0.8 nM.

B30: 40-55 (ssRNA)
RNA: GGGAGGACGAUGCGGUUAGGGGCGUCAACACCGCUAUUCAACCUUCGCUUCCCCAGACGACUCGCCCGA
modifications: 2'-F C and U
As for B30, the inhibition constant (Ki) in data set [6] is 2.9 nM.

B31: 30-34 (ssRNA)
RNA: GGGAGGACGAUGCGGUGUCUAUAGCCUUGAUUACAUCAUCUGCCUCAGACGACUCGCCCGA
modifications: 2'-F C and U
In the case of B31, the Kd in [3] worked out at 9.5 nM.

B32: 40-14 (ssRNA)
RNA: GGGAGGACGAUGCGGCAUUAUGGCGUCAACAUGCCGGUUUUCGAUUCUCAUUGUCCAGACGACUCGCCCGA
modifications: 2'-F C and U
Take B32: in [6], the Ki was found to be 3.9 nM.

B33: 30-08 (ssRNA)
RNA: GGGAGGACGAUGCGGCGGAAUUUUUGUUGAGCCGUAUGCCGCCAGACGACUCGCCCGA
modifications: 2'-F C and U
B33 yielded a Kd in [3] of 10.2 nM.
